Measurements published in patent US20110311550A1 (Scripps Research, published 2011).

B1: MAb AR1A (antibody, V domains shown)
VH: LEQSGAEVKKPGSSVKVSCRASGSPYSSYTITWVRQAPGQGLEWMGGIILMTGKANYAQKFQGRVTITADRATATAYMEMSSLTSDDTAIYYCARDPYVYAGDDVRSLSRWGQGTPVIVSS
VL: not shown
notes: also called IgG1 of Fab B2
B2: N4 IgG (antibody, V domains shown)
VH: VQLLEQSGPEVKKPGDSLRISCKMSGDSLVTTWIGWVRQKPGQGLEWMGIINPGDSSTNIYPGDSATRYGPSFQGQVTISIDKSTSTAYLQWNNVKASDTGIYYCARHVPVPISGTFLWREREMHDFGYFDDWGQGTLVIVSS
VL: ELTLTQSPGTLSLSPGERATLSCRASQSVSNNYLAWYQQKPGQAPRLLIYGASSRATGIPDRFSGSGSGTGFTLIISRLEPEDFAVYYCQQYGSSSITFGQGTRLEIKR
notes: also called IgG N4
B3: MAb AR3C (antibody, V domains shown)
VH: LEQSGAEVKKPGSSVKVSCETSGGTLDNYALNWVRQAPGQGLEWIGGVVPLFGTTRNAQKFQGRVTISDDKSTGTGHMELRSLRSEDTAVYYCVRSVTPRYCGGGFCYGEFDYWGQGTLVTVSS
VL: ELTQSPATLSVSPGERATLSCRASQSVSSNLAWYQQKPGQAPRLLIYGASTRATGIPARFSGSGSGTEFTLTVSRLEPEDSAVYFCQQYYRSPLTFGGGTKVEIKR
notes: also called IgG1 of Fab H3
B4: MAb AR3D (antibody, V domains shown)
VH: LEQSGAEVKKPGSSVKVSCKASGDTFRSYVITWARQAPGQGLEWMGAIIPFFGTTNLAQKFQGRVTITADESTKTVYMDLSSLRSDDTAVYYCAKAGDLSVGGVLAGGVPHLRHFDPWGQGTLVTVSS
VL: ELTQSPGTLSLSPGERATLSCRAGQTVASNSLAWYQHKPGQAPRLLIYGASIRASGIPDRFSGSGSGTDFTLTISRLEPEDFAVYYCQQYGLSSTFGQGTRLEIKR
notes: also called IgG1 of Fab L4
B5: MAb AR1B (antibody, V domains shown)
VH: LESGGGLVQPGGSLRLSCEASGYYFSSFAMSWVRQTPGKGLEWVSSIAGGTLGRTSYRDSVKGRFTISRDNSKNTVFLHMNNLRPEDTAVYYCAKDPLLFAGGPNWFDHWGQGTLVTVSS
VL: not shown
notes: also called IgG1 of Fab D1
B6: MAb AR2A (antibody, V domains shown)
VH: LEQSGAEMKKPGASLKVSCKTSGYTFDDYGVTWVRQAPGQGLEWMGWISAYSGNTFYARKFQGRVTMTTDPSTRTAYMELRSLRSDDTAVYFCARDRGLAINGVVFPYFGLDVWGQGTTVTVSS
VL: ELTQSPVSLPVTPGEPASISCRSSQSLLHSNGNHYLDWYLQKPGQSPQLLMYLGSNRASGVPDRFSGSGSGTDFTLKISRVEAEDVGVYYCMQGLQTPWTFGQGTKVEIKR
notes: also called IgG1 of Fab G

What was measured:
[1] = target: E1E2 complex of HCV isolate H77 (genotype 1a), wild type (HCV isolate H77, UniProt P27958 192-383; P27958 384-746); test: competition ELISA on H77 E1E2; competitor m46 (Fab P4)
[2] = target: vaccinia-expressed E1E2 complex, isolate HCV-1 (genotype 1a) (hepatitis C virus, isolate HCV-1, UniProt P26664 192-383; P26664 384-746); test: competition ELISA on HCV-1 E1E2; competitor m2 (AR1B)
H77 E1E2 mutant G523A = H77 E1E2 mutant G523A (HCV isolate H77, UniProt P27958 192-383; P27958 384-746); test: ELISA, alanine mutant E1E2
H77 E1E2 mutant T416A = H77 E1E2 mutant T416A (HCV isolate H77, UniProt P27958 192-383; P27958 384-746); test: ELISA, alanine mutant E1E2
H77 E1E2 mutant Q412A = H77 E1E2 mutant Q412A (HCV isolate H77, UniProt P27958 192-383; P27958 384-746); test: ELISA, alanine mutant E1E2
H77 E1E2 mutant P484A = H77 E1E2 mutant P484A (HCV isolate H77, UniProt P27958 192-383; P27958 384-746); test: ELISA, alanine mutant E1E2
H77 E1E2 mutant W487A = H77 E1E2 mutant W487A (HCV isolate H77, UniProt P27958 192-383; P27958 384-746); test: ELISA, alanine mutant E1E2
H77 E1E2 mutant W420A = H77 E1E2 mutant W420A (HCV isolate H77, UniProt P27958 192-383; P27958 384-746); test: ELISA, alanine mutant E1E2
H77 E1E2 mutant T534A = H77 E1E2 mutant T534A (HCV isolate H77, UniProt P27958 192-383; P27958 384-746); test: ELISA, alanine mutant E1E2
[3] = target: E1E2 complex (H77) with E2 mutation P619A (HCV genotype 1a, isolate H77, UniProt P27958 192-383; P27958 384-746); test: ELISA, lectin-captured E1E2 lysate, Ab 1 ug/ml;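 note: E1E2 captured on Galanthus nivalis lectin-coated plates, bound antibody read out via HRP-linked secondary antibody with TMB colorimetric substrate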
[4] = target: E1E2 complex (H77) with E2 mutation G634A (HCV genotype 1a, isolate H77, UniProt P27958 192-383; P27958 384-746); test: ELISA, lectin-captured E1E2 lysate, Ab 1 ug/ml;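 note: E1E2 captured on Galanthus nivalis lectin-coated plates, bound antibody read out via HRP-linked secondary antibody with TMB colorimetric substrate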
[5] = target: E1E2 complex (H77) with E2 mutation F447A (HCV genotype 1a, isolate H77, UniProt P27958 192-383; P27958 384-746); test: ELISA, lectin-captured E1E2 lysate, Ab 1 ug/ml;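 note: E1E2 captured on Galanthus nivalis lectin-coated plates, bound antibody read out via HRP-linked secondary antibody with TMB colorimetric substrate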
[6] = target: E1E2 complex (H77) with E2 mutation H617A (HCV genotype 1a, isolate H77, UniProt P27958 192-383; P27958 384-746); test: ELISA, lectin-captured E1E2 lysate, Ab 1 ug/ml;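 note: E1E2 captured on Galanthus nivalis lectin-coated plates, bound antibody read out via HRP-linked secondary antibody with TMB colorimetric substrate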
[7] = target: E1E2 complex (H77) with E2 mutation E637A (HCV genotype 1a, isolate H77, UniProt P27958 192-383; P27958 384-746); test: ELISA, lectin-captured E1E2 lysate, Ab 1 ug/ml
[8] = target: E1E2 complex (H77) with E2 mutation L441A (HCV genotype 1a, isolate H77, UniProt P27958 192-383; P27958 384-746); test: ELISA, lectin-captured E1E2 lysate, Ab 1 ug/ml
[9] = target: E1E2 complex (H77) with E2 mutation T621A (HCV genotype 1a, isolate H77, UniProt P27958 192-383; P27958 384-746); test: ELISA, lectin-captured E1E2 lysate, Ab 1 ug/ml
[10] = target: E1E2 complex (H77) with E2 mutation N623A (HCV genotype 1a, isolate H77, UniProt P27958 192-383; P27958 384-746); test: ELISA, lectin-captured E1E2 lysate, Ab 1 ug/ml
[11] = target: E1E2 complex (H77) with E2 mutation Y443A (HCV genotype 1a, isolate H77, UniProt P27958 192-383; P27958 384-746); test: ELISA, lectin-captured E1E2 lysate, Ab 1 ug/ml
[12] = target: E1E2 complex (H77) with E2 mutation F442A (HCV genotype 1a, isolate H77, UniProt P27958 192-383; P27958 384-746); test: ELISA, lectin-captured E1E2 lysate, Ab 1 ug/ml
[13] = target: E1E2 complex (H77) with E2 mutation H638A (HCV genotype 1a, isolate H77, UniProt P27958 192-383; P27958 384-746); test: ELISA, lectin-captured E1E2 lysate, Ab 1 ug/ml
[14] = target: E1E2 complex (H77) with E2 mutation T425A (HCV genotype 1a, isolate H77, UniProt P27958 192-383; P27958 384-746); test: ELISA, lectin-captured E1E2 lysate, Ab 1 ug/ml
[15] = target: E1E2 complex (H77) with E2 mutation N448A (HCV genotype 1a, isolate H77, UniProt P27958 192-383; P27958 384-746); test: ELISA, lectin-captured E1E2 lysate, Ab 1 ug/ml
[16] = target: E1E2 complex (H77) with E2 mutation A643G (HCV genotype 1a, isolate H77, UniProt P27958 192-383; P27958 384-746); test: ELISA, lectin-captured E1E2 lysate, Ab 1 ug/ml
[17] = target: E1E2 complex (H77) with E2 mutation L427A (HCV genotype 1a, isolate H77, UniProt P27958 192-383; P27958 384-746); test: ELISA, lectin-captured E1E2 lysate, Ab 1 ug/ml

Binder | % residual binding [1] [%] | % residual binding [2] [%] | binding vs wild-type E1E2 (H77 E1E2 mutant G523A) [%] | binding vs wild-type E1E2 (H77 E1E2 mutant T416A) [%] | binding vs wild-type E1E2 (H77 E1E2 mutant Q412A) [%] | binding vs wild-type E1E2 (H77 E1E2 mutant P484A) [%] | binding vs wild-type E1E2 (H77 E1E2 mutant W487A) [%] | binding vs wild-type E1E2 (H77 E1E2 mutant W420A) [%] | binding vs wild-type E1E2 (H77 E1E2 mutant T534A) [%] | also measured
B1 | 85 | 15 | 112 | 23 | 145 | 38 | 89 | 141 | 100 | –
B2 | – | – | – | – | – | – | – | – | – | Binding relative to wt (%) [3]: 41%; Binding relative to wt (%) [4]: 117%; Binding relative to wt (%) [5]: 28%; Binding relative to wt (%) [6]: 21%; Binding relative to wt (%) [7]: 67%; Binding relative to wt (%) [8]: 18%; Binding relative to wt (%) [9]: 34%; Binding relative to wt (%) [10]: 54%; Binding relative to wt (%) [11]: 5%; Binding relative to wt (%) [12]: 22%; Binding relative to wt (%) [13]: 12%; Binding relative to wt (%) [14]: 100%; Binding relative to wt (%) [15]: 48%; Binding relative to wt (%) [16]: 34%; Binding relative to wt (%) [17]: 125%
B3 | 155 | 91 | – | – | – | – | – | – | – | –
B4 | 145 | 92 | 48 | 90 | 44 | 90 | 119 | 68 | 181 | –
B5 | 95 | 6 | 33 | 99 | 48 | 45 | 70 | 41 | 49 | –
B6 | 79 | 57 | 129 | 99 | 95 | 77 | 93 | 80 | 84 | –
